The nature of the data set: total protein half-life in vivo (active degradation + dilution); higher = more stable protein.
Where [1] appears, read: E. coli NCM3722 delta-clpP delta-lon delta-hslV, growth: N-lim chemostat, doubling time 6 h.
Setting [2] is: E. coli NCM3722 delta-clpP, growth: N-lim chemostat, doubling time 6 h.
Where [3] appears, read: E. coli NCM3722 delta-hslV, growth: N-lim chemostat, doubling time 6 h.
The mark [4] stands for this setting: E. coli NCM3722 delta-lon, growth: N-lim chemostat, doubling time 6 h.
Where [5] appears, read: E. coli NCM3722 delta-smpB, growth: N-lim chemostat, doubling time 6 h.
Where [6] appears, read: wild type E. coli NCM3722, growth: C-lim chemostat, doubling time 3 h.
Where [7] appears, read: wild type E. coli NCM3722, growth: C-lim chemostat, doubling time 6 h.
Setting [8] is: wild type E. coli NCM3722, growth: C-lim chemostat, doubling time 12 h.
[9] abbreviates: wild type E. coli NCM3722, growth: N-lim chemostat, doubling time 6 h.
The mark [10] stands for this setting: wild type E. coli NCM3722, growth: N-lim chemostat, doubling time 12 h.
Setting [11] is: wild type E. coli NCM3722, growth: P-lim chemostat, doubling time 6 h.
Where [12] appears, read: wild type E. coli NCM3722, growth: P-lim chemostat, doubling time 12 h.

± gives the standard deviation of the averaged measurements.

Consider “MNTALAQQIANEGGVEAWMIAQQHKSLLRFLTCGSVDDGKSTLIGRLLHDTRQIYEDQLSSLHNDSKRHGTQGEKLDLALLVDGLQAEREQGITIDVAYRYFSTEKRKFIIADTPGHEQYTRNMATGASTCELAILLIDARKGVLDQTRRHSFISTLLGIKHLVVAINKMDLVDYSEETFTRIREDYLTFAGQLPGNLDIRFVPLSALEGDNVASQSESMPWYSGPTLLEVLETVEIQRVVDAQPMRFPVQYVNRPNLDFRGYAGTLASGRVEVGQRVKVLPSGVESNVARIVTFDGDREEAFAGEAITLVLTDEIDISRGDLLLAADEALPAVQSASVDVVWMAEQPLSPGQSYDIKIAGKKTRARVDGIRYQVDINNLTQREVENLPLNGIGLVDLTFDEPLVLDRYQQNPVTGGLIFIDRLSNVTVGAGMVHEPVSQATAAPSEFSAFELELNALVRRHFPHWGARDLLGDK”, for which the “total protein half-life in vivo” value came out at 4.99 ± 0.27 h under setting [1]; 4.67 ± 0.42 h under setting [2]; 1.18 ± 0.2 h under setting [3]; 1.23 ± 0.018 h under setting [4]; 1.13 ± 0.045 h under setting [5]; 1.58 ± 0.051 h under setting [6]. Further, the “total protein half-life in vivo” value under setting [7] turned out to be 1.61 ± 0.17 h; the “total protein half-life in vivo” value under setting [8] stood at 2.08 ± 0.23 h; the “total protein half-life in vivo” value under setting [9] was determined as 1.29 ± 0.057 h; the “total protein half-life in vivo” value under setting [10] was found to be 1.39 ± 0.11 h; the “total protein half-life in vivo” value under setting [11] came to 1.67 ± 0.47 h; the “total protein half-life in vivo” value under setting [12] came to 2.32 ± 0.57 h.
Regarding “MLSPLLKRYTWNSAWLYYARIFIALCGTTAFPWWLGDVKLTIPLTLGMVAAALTDLDDRLAGRLRNLIITLFCFFIASASVELLFPWPWLFAIGLTLSTSGFILLGGLGQRYATIAFGALLIAIYTMLGTSLYEHWYQQPMYLLAGAVWYNVLTLIGHLLFPVRPLQDNLARCYEQLARYLELKSRMFDPDIEDQSQAPLYDLALANGLLMATLNQTKLSLLTRLRGDRGQRGTRRTLHYYFVAQDIHERASSSHIQYQTLREHFRHSDVLFRFQRLMSMQGQACQQLSRCILLRQPYQHDPHFERAFTHIDAALERMRDNGAPADLLKTLGFLLNNLRAIDAQLATIESEQAQALPHNNDENELADDSPHGLSDIWLRLSRHFTPESALFRHAVRMSLVLCFGYAIIQITGMHHGYWILLTSLFVCQPNYNATRHRLKLRIIGTLVGIAIGIPVLWFVPSLEGQLVLLVITGVLFFAFRNVQYAHATMFITLLVLLCFNLLGEGFEVALPRVIDTLIGCAIAWAAVSYIWPDWQFRNLPRMLERATEANCRYLDAILEQYHQGRDNRLAYRIARRDAHNRDAELASVVSNMSSEPNVTPQIREAAFRLLCLNHTFTSYISALGAHREQLTNPEILAFLDDAVCYVDDALHHQPADEERVNEALASLKQRMQQLEPRADSKEPLVVQQVGLLIALLPEIGRLQRQITQVPQETPVSA”, the “total protein half-life in vivo” value under setting [1] turned out to be 5.89 h; the “total protein half-life in vivo” value under setting [2] came to 5.69 h; the “total protein half-life in vivo” value under setting [5] came out at 5.95 ± 0.25 h; the “total protein half-life in vivo” value under setting [6] amounted to 3.21 ± 0.3 h; the “total protein half-life in vivo” value under setting [8] was above 16 h; the “total protein half-life in vivo” value under setting [9] stood at 5.03 ± 1.3 h. For the same sequence, the “total protein half-life in vivo” value is, setting by setting: under setting [10], 13.4 h; under setting [11], 6.49 ± 0.13 h.
Regarding “MFEITGINVSGALKAVVMATGFENPLSSVNEIETKLSALLGSETTGEILFDLLCANGPEWNRFVTLEMKYGRIMLDTAKIIDEQDVPTHILSKLTFTLRNHPEYLEASVLSPDDVRQVLSMDF”, the “total protein half-life in vivo” value turned out to be 5.32 ± 0.4 h under setting [1], 2.73 h under setting [6] and 5.11 h under setting [7].
In the case of “MQKIVIVANGAPYGSESLFNSLRLAIALREQESNLDLRLFLMSDAVTAGLRGQKPGEGYNIQQMLEILTAQNVPVKLCKTCTDGRGISTLPLIDGVEIGTLVELAQWTLSADKVLTF [P0AB52]”, the “total protein half-life in vivo” value under setting [1] came out at 5.73 ± 0.71 h; the “total protein half-life in vivo” value under setting [2] was 5.32 ± 0.28 h; the “total protein half-life in vivo” value under setting [3] was determined as 4.94 ± 1.6 h; the “total protein half-life in vivo” value under setting [4] was determined as 5.96 ± 0.57 h; the “total protein half-life in vivo” value under setting [5] came out at 4.81 ± 0.086 h; the “total protein half-life in vivo” value under setting [6] was 2.64 ± 0.25 h. The “total protein half-life in vivo” value turned out to be 6.4 ± 1.1 h under setting [7]; 13.2 ± 0.93 h under setting [8]; 5.55 ± 0.19 h under setting [9]; 10.1 ± 0.94 h under setting [10]; 5.43 h under setting [11]; 12.5 ± 1.7 h under setting [12].
